The supplement of paper PMC10724198
± gives the standard deviation of the averaged measurements.

Legend:
[1] = system: Saccharomyces cerevisiae; test: protein stability index of tFT-peptide fusion (C-terminal peptide) (PSI (0-1 scale)); higher = more stable (slower turnover); details: genetic background: wild type; temperature: 30 C
[2] = system: Saccharomyces cerevisiae; test: as above
Protocol: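 MPS profiling in S. cerevisiae of the tFT-X12 degron library: putative degron peptides plus stable controls, 12 aa, fused to the C-terminus of a sfGFP-mCherry timer. Cells are FACS-sorted into 8 mCherry/sfGFP bins and deep-sequenced. PSI runs from 0 (unstable) to 1 (stable). Backgrounds are wild type, das1Δ and doa10Δ at 30 °C, and wild type, das1Δ, cdc34-1 and cdc53-1 at 37 °C; 2-3 technical replicates each.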

[3] = genetic background: cdc34-1, temperature: 37 C
[4] = genetic background: cdc53-1, temperature: 37 C
[5] = genetic background: das1 deletion, temperature: 30 C
[6] = genetic background: das1 deletion, temperature: 37 C
[7] = genetic background: doa10 deletion, temperature: 30 C
[8] = genetic background: wild type, temperature: 30 C
[9] = genetic background: wild type, temperature: 37 C
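Note: PSI is a weighted mean of sequencing reads over stability bins, variants kept only with over 10 reads, mCherry proximal and sfGFP distal, peptide attached via GGGS linker.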

Row | Sequence | protein stability index [1] | protein stability index [2, 3] | protein stability index [2, 4] | protein stability index [2, 5] | protein stability index [2, 6] | protein stability index [2, 7] | protein stability index [2, 8] | protein stability index [2, 9]
1 | WGRGYRWRIWDV | 0.546 ± 0.093 | 0.708 ± 0.068 | 0.772 ± 0.018 | 0.657 ± 0.015 | 0.7901 ± 0.0042 | 0.396 ± 0.01 | 0.433 ± 0.0092 | 0.656 ± 0.034
2 | WIGCTVKIASLY | 0.437 ± 0.036 | 0.619 ± 0.015 | 0.67 ± 0.018 | 0.558 ± 0.03 | 0.693 ± 0.012 | 0.219 ± 0.021 | 0.261 ± 0.019 | 0.49113 ± 0.00019
3 | WLCLFRFLGVAY | 0.345 ± 0.018 | 0.18 ± 0.024 | 0.245 ± 0.04 | 0.218 ± 0.033 | 0.3 ± 0.0097 | 0.185 ± 0.005 | 0.216 ± 0.012 | 0.2749 ± 0.0024
4 | WLMVGVDWRFVG | 0.138 ± 0.046 | 0.436 ± 0.0056 | 0.6254 ± 0.0043 | 0.57 ± 0.024 | 0.7086 ± 0.0033 | 0.0725 ± 0.015 | 0.08 ± 0.012 | 0.0927 ± 0.0084
5 | WLSWATRRIVLG | 0.47 ± 0.031 | 0.552 ± 0.037 | 0.611 ± 0.019 | 0.57 ± 0.02 | 0.605 ± 0.018 | 0.384 ± 0.008 | 0.401 ± 0.013 | 0.527 ± 0.012
6 | WLWYSPIAFTAL | 0.179 ± 0.015 | 0.632 ± 0.014 | 0.764 ± 0.041 | 0.64 ± 0.016 | 0.778 ± 0.02 | 0.11 ± 0.019 | 0.107 ± 0.0089 | 0.163 ± 0.0073
7 | WPRSFSIILLSR | 0.285 ± 0.027 | 0.322 ± 0.036 | 0.3371 ± 0.002 | 0.265 ± 0.029 | 0.4355 ± 0.0031 | 0.361 ± 0.015 | 0.288 ± 0.025 | 0.419 ± 0.0043
8 | WRMRCGLIIGLV | 0.183 ± 0.032 | 0.0313 ± 0.0029 | 0.0521 ± 0.023 | 0.155 ± 0.028 | 0.164 ± 0.0025 | 0.1 ± 0.025 | 0.134 ± 0.026 | 0.125 ± 0.018
9 | WRVFRPSLRLFA | 0.393 ± 0.051 | 0.531 ± 0.04 | 0.61 ± 0.018 | 0.467 ± 0.017 | 0.598 ± 0.012 | 0.287 ± 0.0051 | 0.33 ± 0.021 | 0.507 ± 0.036
10 | WVFMVILLVFLV | 0.3041 ± 0.0026 | 0.216 ± 0.0073 | 0.268 ± 0.017 | 0.257 ± 0.021 | 0.33 ± 0.038 | 0.28 ± 0.0053 | 0.228 ± 0.022 | 0.315 ± 0.014
11 | YAFYLFSRILAA | 0.2795 ± 0.00053 | 0.232 ± 0.0091 | 0.302 ± 0.075 | 0.236 ± 0.025 | 0.3486 ± 0.0015 | 0.1792 ± 0.0014 | 0.208 ± 0.016 | 0.285 ± 0.013
12 | YALVQHRWVYYF | 0.119 ± 0.031 | 0.4 ± 0.0056 | 0.633 ± 0.061 | 0.625 ± 0.019 | 0.724 ± 0.011 | 0.0888 ± 0.011 | 0.0761 ± 0.011 | 0.0856 ± 0.0031
13 | YCFLSWVLMCCF | 0.406 ± 0.022 | 0.457 ± 0.019 | 0.4613 ± 0.0037 | 0.399 ± 0.018 | 0.438 ± 0.011 | 0.421 ± 0.025 | 0.386 ± 0.0065 | 0.42 ± 0.0059
14 | YFNGLLPLVLVF | 0.0927 ± 0.049 | 0.0299 ± 0.0068 | 0.0434 ± 0.004 | 0.074 ± 0.01 | 0.0623 ± 0.018 | 0.0659 ± 0.018 | 0.0601 ± 0.0082 | 0.0517 ± 0.028
15 | YHFSLFFPLSLP | 0.482 ± 0.0063 | 0.685 ± 0.022 | 0.73 ± 0.028 | 0.607 ± 0.015 | 0.711 ± 0.0088 | 0.378 ± 0.0088 | 0.383 ± 0.017 | 0.568 ± 0.032
16 | YLAGPLARLRKF | 0.751 ± 0.037 | 0.68 ± 0.046 | 0.7579 ± 0.0021 | 0.752 ± 0.027 | 0.738 ± 0.0093 | 0.716 ± 0.037 | 0.749 ± 0.041 | 0.735 ± 0.013
17 | YLDRFIFIYNIF | 0.26 ± 0.025 | 0.603 ± 0.034 | 0.6848 ± 0.0062 | 0.599 ± 0.048 | 0.707 ± 0.031 | 0.189 ± 0.0069 | 0.202 ± 0.017 | 0.367 ± 0.023
18 | YLGLSAVAILWM | 0.4784 ± 0.0037 | 0.538 ± 0.041 | 0.533 ± 0.02 | 0.414 ± 0.029 | 0.563 ± 0.014 | 0.381 ± 0.011 | 0.412 ± 0.018 | 0.529 ± 0.011
19 | YLVFSLCSYRFL | 0.457 ± 0.033 | 0.596 ± 0.012 | 0.677 ± 0.022 | 0.511 ± 0.019 | 0.653 ± 0.011 | 0.36 ± 0.011 | 0.374 ± 0.029 | 0.549 ± 0.016
20 | YNRKQEAAQKAN | 0.486 ± 0.14 | 0.671 ± 0.02 | 0.735 ± 0.029 | 0.617 ± 0.0072 | 0.71085 ± 0.00017 | 0.363 ± 0.025 | 0.396 ± 0.018 | 0.606 ± 0.011
21 | YNTRLCTFSCML | 0.755 ± 0.0089 | 0.772 ± 0.013 | 0.8079 ± 0.007 | 0.668 ± 0.033 | 0.7881 ± 0.0015 | 0.657 ± 0.025 | 0.698 ± 0.021 | 0.772 ± 0.011
22 | YPCRLFVRSLLA | 0.32 ± 0.051 | 0.442 ± 0.05 | 0.436 ± 0.031 | 0.369 ± 0.023 | 0.498 ± 0.0098 | 0.205 ± 0.0068 | 0.235 ± 0.022 | 0.375 ± 0.019
23 | YRGFFIGKLMLV | 0.201 ± 0.013 | 0.488 ± 0.04 | 0.548 ± 0.03 | 0.482 ± 0.035 | 0.63 ± 0.013 | 0.112 ± 0.017 | 0.113 ± 0.018 | 0.216 ± 0.081
24 | YRKKIKNIWLRW | 0.473 ± 0.041 | 0.442 ± 0.017 | 0.428 ± 0.026 | 0.475 ± 0.033 | 0.6017 ± 0.0025 | 0.444 ± 0.058 | 0.322 ± 0.033 | 0.535 ± 0.0073
25 | YRLTIVWFFLAL | 0.427 ± 0.055 | 0.434 ± 0.028 | 0.519 ± 0.006 | 0.354 ± 0.026 | 0.609 ± 0.034 | 0.3504 ± 0.002 | 0.349 ± 0.012 | 0.513 ± 0.011
26 | YSVERCLFVSVA | 0.414 ± 0.034 | 0.422 ± 0.025 | 0.4443 ± 0.0013 | 0.352 ± 0.034 | 0.502 ± 0.013 | 0.287 ± 0.02 | 0.314 ± 0.01 | 0.443 ± 0.018
27 | YVASSWRHCFII | 0.221 ± 0.039 | 0.5016 ± 0.0016 | 0.657 ± 0.039 | 0.658 ± 0.022 | 0.724 ± 0.039 | 0.145 ± 0.012 | 0.152 ± 0.014 | 0.269 ± 0.023
28 | YVLLSRVSVFSA | 0.421 ± 0.035 | 0.446 ± 0.0078 | 0.464 ± 0.031 | 0.378 ± 0.019 | 0.533 ± 0.0079 | 0.297 ± 0.011 | 0.329 ± 0.037 | 0.501 ± 0.028
